Target: Mammalian (Human) 20S Proteasome (Mammalian (Human))
Assay: cell-based or functional assay

I50 (µM), inhibition of chymotrypsin-like (ChT-L) peptidase activity of 20S proteasome, N-succinyl-LLVY-AMC substrate | Binder
0.685 µM | RRRPRPPYLPA [A11]
> 100 µM | AAAPRPPYLPR [AAA-PR11]
20.1 µM | RAAPRPPYLPR [RAA]
14.5 µM | AARPRPPYLPR [AAR]
0.004 µM | RRRPRPPYLPRPRPPPFFPPRLPPRIPPGFPPRFPPRFP [PR39]
0.006 µM | RRRPRPPYLPRW [W12]
2.71 µM | KKKPRPPYLPR [KKK]
11.3 µM | ARAPRPPYLPR [ARA]
0.805 µM | RRRPRPPYLPR [PR11]

Continued, binder first:

Binder | I50 (µM), inhibition of chymotrypsin-like (ChT-L) peptidase activity of 20S proteasome, N-succinyl-LLVY-AMC substrate
RARPRPPYLPR [A2] | 2.77 µM
KRRRPPYLPR [K1] | 0.595 µM
RRAPRPPYLPR [A3] | 3.15 µM
KRRPRPPELPR [K1E8] | 6.34 µM
RRRPAPPYLPR [A5] | 2.65 µM
RRRPRPPELPR [E8] | 2.37 µM
RRKPRPPYLPR [K3] | 0.819 µM
RRRPRPPELPRW [E8W12] | 2.62 µM
RRRARPPYLPR [A4] | 4.99 µM
ARRPRPPYLPR [A1] | 2.81 µM
RRRPRPPYGPR [G9] | 0.137 µM
RRRPRAPYLPR [A6] | 1.22 µM
RRRPRPAYLPR [A7] | 0.851 µM
ARRPRPPELPR [A1E8] | 49.4 µM
RRRPRPPFLPRW [F8W12] | 0.034 µM
RRRPRPPALPRW [A8W12] | 0.715 µM
RRRPRPPYLAR [A10] | 0.782 µM
RKRPRPPYLPR [K2] | 0.543 µM
